For 9 substances, CTLL Inhibition Assay units/ml (Antagonist Activity) and concentration of antagonist required to neutralize 40 pg/ml IL-15 in CTLL inhibition assay results are on record in patent US20040253587A1.

The target in the experiment is IL-15 receptor complex on CTLL-2 cells. Nature of the experiment: cell-based or functional assay.

“And” between values parts separate entries of the source, which are not always exact repeats. Equal entries are not always repeated.

“IL-15 (from UniProt P40933 49-162) (ligand)”: the CTLL Inhibition Assay units/ml (Antagonist Activity) is 279 units/ml.

Turning to “IL-15-D56C (from UniProt P40933 49-162) (ligand)”, the CTLL Inhibition Assay units/ml (Antagonist Activity) was 2e+06 units/ml and 5e+06 units/ml.

Take “IL-15-D56C-Q156C (from UniProt P40933 49-162) (ligand)”: the CTLL Inhibition Assay units/ml (Antagonist Activity) stood at 200000 units/ml.

“IL-15-D56C-Q156S (from UniProt P40933 49-162) (ligand)” showed a CTLL Inhibition Assay units/ml (Antagonist Activity) of 700000 units/ml.

As for “IL-15-D56S (from UniProt P40933 49-162) (ligand)”, the CTLL Inhibition Assay units/ml (Antagonist Activity) was determined as 220000 units/ml.

Take “IL-15-D56S-Q156S (from UniProt P40933 49-162) (ligand)”: the CTLL Inhibition Assay units/ml (Antagonist Activity) is 720000 units/ml.

In turn, “IL-15-Q156C (from UniProt P40933 49-162) (ligand)” returned a CTLL Inhibition Assay units/ml (Antagonist Activity) of 3e+06 units/ml.

In turn, “IL-15-Q156S (from UniProt P40933 49-162) (ligand)” showed a CTLL Inhibition Assay units/ml (Antagonist Activity) of 1.5e+06 units/ml.

For “PEG-IL-15-D56C (from UniProt P40933 49-162) (ligand)”, the CTLL Inhibition Assay units/ml (Antagonist Activity) came to 7.96e+06 units/ml and the concentration of antagonist required to neutralize 40 pg/ml IL-15 in CTLL inhibition assay was 7.7 ng/mL.
